Patent US10858422B2, “Methods for treating systemic lupus erythematosus with an anti-apolipoprotein B antibody” (Abcentra, LLC, priority 2016, dated 2020)
Marks after values point to notes of the source that are not given here.

Experiments:
[1] = in vivo
[2] = in vivo, iv
Description: Random allocation was stratified by T2DM status and pre-diabetes status, presence of elevated screening tissue-to-background ratio TBR>2), and study site.

[3] = system: healthy subjects with elevated LDL cholesterol; assay: Phase I dose-escalation trial: biomarkers and lipids; format: in vivo, human; settings: healthy volunteers
Description: (§1) Study population: 80 healthy subjects with elevated LDL cholesterol.
The panel included: oxLDL, Lp-PLA2, hsCRP, sCD36, MCP-1, ICAM-1, IL-10, VCAM-1, IL-1ra, TNFα, insulin, and MMP-3.

[4] = Phase IIa: safety, tolerability, anti-therapeutic antibodies; design: species or system human; settings: in vivo
Description: Incidence and severity of adverse events and clinical laboratory abnormalities as a measure of safety and tolerability of orticumab. Effects of orticumab on inflammatory and metabolic biomarkers. Serum and EDTA plasma samples for soluble biomarker analysis were obtained at baseline and on Day 29 and Day 85. Biomarker assays were performed using the HumanMAP1.6 multiplex panel from Rules Based Medicine (RBM). IL-6 and TNFα immunoassays were performed at Pacific Biomarkers using Quantikine R&D High Sensitivity ELISA. IL-10, MPO and oxLDL immunoassays were performed at Pacific Biomarkers using immunoassay kits from MSA, Prognostix, and Mercodia, respectively. Presence of anti-therapeutic antibodies to orticumab.

B6.lpr.ApoE−/− mice [5] = assay: Atherosclerosis: en face Oil Red O of aortic arch, subvalvular plaque area, Oil Red O and CD68; format: in vivo, mouse; settings: for reduction of subvalvular plaque area / development: three injections of the antibody
[6] = system: PBMC isolated from SLE patients; assay: Uptake of DiI-oxLDL and cytokine release in SLE PBMC with MDA.P45-IgG; format: cell-based, human; settings: 10 μg/ml antibody with 10 μg/ml labelled oxLDL, 24 hours
Description: Flow cytometry analysis of PBMCs stimulated with DIloxLDL and MDA.P45-IgG antibody: PBMCs were slowly thawed in 37° C. PBS with 2% autologous serum, counted and seeded into appropriate medium and conditions. Medium for each stimuli condition was prepared from complete RPMI (cRPMI, 10 U/ml Penicillin/streptomycin, 1% L-glutamine, 1% sodium pyruvate, 1% Hepes and 0.1% mercaptoethanol) with 2% autologous serum (Sigma Aldrich) including the respective stimuli conditions and pre-incubated in 37° C. for 1 h before stimulating the cells with it. Condition 1; unstimulated, condition 2; 10 μg/ml Dil-OxLDL (Thermo Scientific), condition 3; 10 μg/ml Dil-OxLDL with MDA.P45-IgG. (Dil-OxLDL refers to oxidized LDL complexed with Dil dye).
At time of experiment, cells were slowly thawed in 37° C. PBS containing 2% autologous serum. Cells were counted and all cells obtained were divided into three wells for respective condition mentioned above for 24 h at 37° C. in 5% CO2. After 24 h stimulation, medium was harvested and kept in −80° C. until cytokine analysis. Cells were washed twice in FACS buffer (PBS 1% bovine serum albumin […] EDTA), then stained with Zombie Aqua viability dye for 20 minutes in room temperature (RT). This was followed by another wash then incubation with anti-HLA-DR APC-Cy7 anti-CD3-PECy7 and anti-CD14-AF700 for 30 minutes in RT prior acquisition in Gallios flow cytometer (Beckman Coulter, Brea, Calif., USA). Cell populations were manually gated in FlowJo LTT (Tree Star, San Diego, Calif., USA).
Multiplex analysis of PBMC cell culture medium: Cell culture medium from human SLE and control PBMCs were thawed on ice before analyzed using Multiplex Inflammation assay (Merck, Millipore, Burlington, Mass., USA) according to following kit instructions.
Having observed the protective effect of MDA-p45 IgG on atherosclerosis development in B6.lpr.ApoE−/− mice, we next investigated how this antibody affected the interaction of SLE PBMC with oxLDL. We incubated the cells with 10 μg/ml of fluorescently labelled oxLDL for 24 hours with and without addition of 10 μg/ml MDA-p45 IgG.

[7] = Phase I (FIH) dose-escalation trial, single and multiple doses: pharmacokinetics; design: species or system human; settings: in vivo
Description: as §1
Orticumab was provided as a sterile liquid and contained no preservatives. Each single-use, 10 mL vial was designed to deliver 250 mg of MLDL1278A. The Drug Product was formulated as 25 mg/mL orticumab in 20 mM sodium acetate, 0.15 M sodium chloride, pH 5.5.
Route of Administration: intravenous injection (Subcutaneous injection was also examined).
The exact explanation for these unusual PK characteristics was unknown at that time. The mean terminal half-life was similar after both single and multiple administrations of orticumab and was generally in the range of 2-3 weeks and thus in agreement with other therapeutic monoclonal antibodies.

B6.lpr.ApoE−/− mice [8] = assay: Carotid artery mRNA expression; format: in vivo, mouse; settings: 1 mg i.p. weekly x3; vs control IgG
Description: Statistics: Clinical comparisons from human individuals were evaluated and statistically tested using SPSS software. For same-individual analyses, paired nonparametric Wilxocon rank test was used. For normally distributed data, Students t-test was used. For not normally distributed data, Mann-Whitney rank test was used. Numerical data is expressed as mean±standard deviation if normally distributed or median±intra-quartile range if not normally distributed. Carotid gene expressions were log transformed and expressed as arbitrary units (A.U) and relative fold change respectively. All data was plotted in GraphPad Prism and significance levels used are *=p<0.05 **=p<0.01, ***=p<0.001.

[9] = male mice, 1 mg i.p. weekly for three weeks, vs control IgG

orticumab: recombinant human IgG1 against MDA-modified peptide 45 of ApoB100; heavy chain SEQ ID NO: 316, light chain SEQ ID NO: 317
subjects on active treatment reporting adverse events [1]: 44 of the 64 | treatment-emergent adverse events reported on active treatment [1]: 115 (76.2%) | Cmax D 1 [2]: 297 μ/mL | biomarkers (oxLDL, Lp-PLA2, hsCRP, sCD36, MCP-1, ICAM-1, IL-10, VCAM-1, IL-1ra, TNFα, insulin, MMP-3) [3]: No treatment-induced general effects | dose-limiting toxicities, deaths, pregnancies [4]: No dose-limiting toxicities, deaths, or pregnancies | immunogenicity [4]: no evidence of immunogenicity | serious adverse events related to procedures or administration [4]: No serious adverse events | tolerability [4]: well tolerated | lipid accumulation in subvalvular plaques (B6.lpr.ApoE−/− mice [5]; [9]): trend towards decreased | reduction of CD68-macrophage subvalvular plaque staining (B6.lpr.ApoE−/− mice [5]; [9]): 30.5% | reduction of atherosclerosis in the aortic arch (B6.lpr.ApoE−/− mice [5]; [9]): 42.8% | reduction of subvalvular plaque area / development (B6.lpr.ApoE−/− mice [5]): 50% | reduction of subvalvular plaque area / development (B6.lpr.ApoE−/− mice [5]; listed as MDA-P45 specific antibody): 50.3% | cellular uptake of oxLDL [6]: increased cellular uptake | expression of CD14 and uptake of oxLDL in CD14+ APC [6]: increased | release of anti-inflammatory cytokine IL-1RA [6]: modest increase | mean terminal half-life ([7]; human): 2-3 weeks | Cmax ([7]; human, iv, 1.25 mg/kg): 20600 ng/mL | Cmax ([7]; human, iv, 5 mg/kg): 105000 ng/mL | Cmax ([7]; human, sc, 1.25 mg/kg): 2990 ng/mL | Cmax, max exposure IV vs SC ([7]; 1.25 mg/kg): 6.9 times | ½-life ([7]; 1.25 mg/kg): 20 days | C ≥ 1 μg/mL ([7]; iv, 1.25 mg/kg): Day 28 | C ≥ 4 μg/mL ([7]; iv, 1.25 mg/kg): Day 3 (<Day 7) | C ≥ 12 μg/mL ([7]; iv, 1.25 mg/kg): 11 h | C ≥ 1 μg/mL ([7]; iv, 5 mg/kg): Day 56 | C ≥ 4 μg/mL ([7]; iv, 5 mg/kg): Day 14 | C ≥ 12 μg/mL ([7]; iv, 5 mg/kg): Day 3 | C ≥ 1 μg/mL ([7]; iv, 15 mg/kg): Day 70* | C ≥ 4 μg/mL ([7]; iv, 15 mg/kg): Day 42 | C ≥ 12 μg/mL ([7]; iv, 15 mg/kg): Day 28 | C ≥ 1 μg/mL ([7]; sc, 1.25 mg/kg): Day 28 | C ≥ 4 μg/mL ([7]; sc, 1.25 mg/kg): Not achieved | C ≥ 12 μg/mL ([7]; sc, 1.25 mg/kg): Not achieved | Cmax of SC dose versus threshold ([7]; sc, 1.25 mg/kg): does not reach threshold of 4-12 μg/mL | mRNA expression of IL-10 or MCP-1 in carotid arteries (B6.lpr.ApoE−/− mice [8]): no effect
